Data: article PMC12403168, “Revisiting the co-crystal structure of a DNA glycosylase with photocaged substrate: a suitable time-resolved crystallography target?”

B1: oG*/C‡ duplex (Table S1 entries 3 and 5) (dsDNA)
DNA 1: AGCGTCCAGGTCTACC
DNA 2: TGGTAGACCTGGACGC
modifications: strand 1 G9 = photocaged 8-oxoguanine (oG*); strand 2 C9 = N4-modified cytosine (C‡) for disulfide cross-linking
B2: oG/C‡ duplex, uncaged in crystallo by 365 nm light (dsDNA)
DNA 1: AGCGTCCAGGTCTACC
DNA 2: TGGTAGACCTGGACGC
modifications: strand 1 G9 = 8-oxoguanine (oG) after photodeprotection; strand 2 C9 = N4-modified cytosine (C‡), disulfide to Cys149

How the values were obtained:
[1] = biological target: T1, hOgg1 N149C (8-oxoguanine DNA glycosylase) (Homo sapiens, UniProt O15527 12-327, N149C); assay: X-ray crystallography; disulfide cross-linked complex, dark (G*Odark), 2.81 A; Complex formation: 20 mM Tris-HCl, 100 mM NaCl, 1 mM EDTA pH 7.4, on ice overnight (12 nmol DNA, 24 nmol protein in 1.2 ml); purified by anion exchange and SEC; crystallized at 13 mg/ml; settings: protein: recombinant; tags: His-tag (pET28a, NdeI/XhoI); 5' overhang 1 nt on each strand
[2] = biological target: T1, hOgg1 N149C (8-oxoguanine DNA …); assay: X-ray crystallography; disulfide cross-linked complex, illuminated 365 nm (95 J) and cryotrapped (G*Olight), oG in active site at 68% occupancy, Ca2+ present, 2.48 A; Complex formation: 20 mM Tris-HCl, 100 mM NaCl, 1 mM EDTA pH 7.4, on ice overnight (12 nmol DNA, 24 nmol protein in 1.2 ml); purified by anion exchange and SEC; crystallized at 13 mg/ml; settings: protein: recombinant; tags: His-tag (pET28a, NdeI/XhoI); 5' overhang 1 nt on each strand

T1 sequence (O15527 12-327 N149C): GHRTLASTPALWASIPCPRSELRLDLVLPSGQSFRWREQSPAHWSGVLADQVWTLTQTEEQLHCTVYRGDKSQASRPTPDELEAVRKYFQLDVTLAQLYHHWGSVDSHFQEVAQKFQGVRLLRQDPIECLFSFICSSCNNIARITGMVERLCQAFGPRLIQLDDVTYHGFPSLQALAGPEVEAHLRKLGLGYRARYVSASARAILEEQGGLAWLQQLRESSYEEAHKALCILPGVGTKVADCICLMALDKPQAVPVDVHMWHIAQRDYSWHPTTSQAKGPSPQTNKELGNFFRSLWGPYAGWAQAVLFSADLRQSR

Binder | binding result [1] | binding result [2]
B1 | binds | 
B2 |  | binds
